Test results published in PMC8242032, “Non-canonical function of DGCR8 in DNA double-strand break repair signaling and tumor radioresistance” (Nature Communications, 2021).

Molecular target: T1, MBP-DGCR8 (human, UniProt Q8WYQ5 1-773)
T1 construct: DGCR8, human, full-length, in an MBP-tagged destination vector; also called purified DGCR8; source: bacterially purified (eluted with maltose)
T1 sequence (looked up): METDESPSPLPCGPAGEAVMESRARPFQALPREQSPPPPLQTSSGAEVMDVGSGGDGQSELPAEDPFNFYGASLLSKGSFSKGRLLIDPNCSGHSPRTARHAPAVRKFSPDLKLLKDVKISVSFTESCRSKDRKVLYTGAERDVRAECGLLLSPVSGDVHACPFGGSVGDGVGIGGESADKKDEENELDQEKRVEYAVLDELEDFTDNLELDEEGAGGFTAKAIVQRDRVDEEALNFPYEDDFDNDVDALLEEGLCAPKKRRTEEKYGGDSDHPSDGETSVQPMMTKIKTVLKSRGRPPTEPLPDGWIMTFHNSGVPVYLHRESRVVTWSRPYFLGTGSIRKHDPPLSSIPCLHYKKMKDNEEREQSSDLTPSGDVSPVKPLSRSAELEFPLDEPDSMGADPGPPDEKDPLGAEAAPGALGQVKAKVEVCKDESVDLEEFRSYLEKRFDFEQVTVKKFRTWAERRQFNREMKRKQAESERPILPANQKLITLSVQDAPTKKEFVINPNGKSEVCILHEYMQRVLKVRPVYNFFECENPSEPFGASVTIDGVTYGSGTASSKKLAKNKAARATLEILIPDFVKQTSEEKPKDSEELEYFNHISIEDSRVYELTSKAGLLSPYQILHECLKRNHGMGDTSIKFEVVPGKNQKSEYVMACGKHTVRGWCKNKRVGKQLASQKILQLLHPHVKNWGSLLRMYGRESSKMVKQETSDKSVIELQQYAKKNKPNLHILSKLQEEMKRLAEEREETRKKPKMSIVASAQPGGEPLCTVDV
Assay: pull-down; SFB-USP51 (or SFB-GFP) purified from transfected HEK293T cells, retained on S-protein beads and incubated with purified MBP-DGCR8, 4 °C overnight; washed with NETN buffer
Conditions: both partners purified

B1: SFB-USP51 (enzyme, human, UniProt Q70EK9 1-711, looked up)
chain: MAQVRETSLPSGSGVRWISGGGGGASPEEAVEKAGKMEEAAAGATKASSRREAEEMKLEPLQEREPAPEENLTWSSSGGDEKVLPSIPLRCHSSSSPVCPRRKPRPRPQPRARSRSQPGLSAPPPPPARPPPPPPPPPPPAPRPRAWRGSRRRSRPGSRPQTRRSCSGDLDGSGDPGGLGDWLLEVEFGQGPTGCSHVESFKVGKNWQKNLRLIYQRFVWSGTPETRKRKAKSCICHVCSTHMNRLHSCLSCVFFGCFTEKHIHKHAETKQHHLAVDLYHGVIYCFMCKDYVYDKDIEQIAKETKEKILRLLTSTSTDVSHQQFMTSGFEDKQSTCETKEQEPKLVKPKKKRRKKSVYTVGLRGLINLGNTCFMNCIVQALTHIPLLKDFFLSDKHKCIMTSPSLCLVCEMSSLFHAMYSGSRTPHIPYKLLHLIWIHAEHLAGYRQQDAHEFLIAILDVLHRHSKDDSGGQEANNPNCCNCIIDQIFTGGLQSDVTCQACHSVSTTIDPCWDISLDLPGSCATFDSQNPERADSTVSRDDHIPGIPSLTDCLQWFTRPEHLGSSAKIKCNSCQSYQESTKQLTMKKLPIVACFHLKRFEHVGKQRRKINTFISFPLELDMTPFLASTKESRMKEGQPPTDCVPNENKYSLFAVINHHGTLESGHYTSFIRQQKDQWFSCDDAIITKATIEDLLYSEGYLLFYHKQGLEKD
notes: USP51, human DUB ORF in the pBabe-SFB vector; also called SFB-tagged USP51; source: HEK293T, transfected, in lysate; purified from transfected HEK293T cells
- binding result: binds
